Laboratory results taken from patent US20230039401A1 (ATYR PHARMA, published 2023).

How the values were obtained:
[1] = molecular target: T1, NRP2a-GFP fusion protein on HEK293T cells (human, UniProt O60462 23-931); assay: immunofluorescence microscopy, competition on HEK293T cells overexpressing NRP2v2-GFP, GFP Bright gate; VEGF-C titrated, competitor 175 nM Fc-HRS(2-60)/anti-Fc-PE
T1 construct: Transiently transfected HEK293T cells, fixed before staining; also called NRP2v2-GFP; cell-expressed NRP2a; not shown: GFP and any linker of the Origene clone
Protocol: HEK293T cells previously transfected with NRP2v2-GFP were passed the night before staining to 96 well Greiner Clear flat bottomed Microplates pre-coated with collagen coating solution. Supernatants were removed and cells were washed 1 time with binding buffer. Cells were then fixed with 50 μL of 3.7% methanol-free formaldehyde for 20 minutes at room temperature. Cells were washed 2× with binding buffer and then blocked with 100 μL of blocking buffer for 1 hour at room temperature. The cells were then washed one time with binding buffer and then incubated with 50 μL of staining complex overnight at 4 degrees Celsius. […] The Hoechst stain was replaced with 1×PBS and subsequently read on an IN Cell Analyzer 2200. 20× images were acquired and analyzed using In Cell Analyzer 1000 Workstation software. Segmentation of the cell mask was achieved using the GFP channel, and the average PE signal intensity was determined within this mask above a threshold intensity of 5000 (termed GFP Bright cells).

[2] = molecular target: T2, NRP2-Fc (R&D Systems #2215-N2) (human, UniProt O60462 23-864, limits assumed); assay: SPR, WARS WHEP immobilised, 20 nM NRP2 as analyte
T2 construct: Bought reagent; also called human NRP2; Neuropilin 2; not shown: Fc of the bought fusion

[3] = molecular target: T2, NRP2-Fc (R&D Systems #2215-N2); assay: SPR, GARS Fc-WHEP immobilised, 20 nM NRP2 as analyte
[4] = molecular target: T2, NRP2-Fc (R&D Systems #2215-N2); assay: SPR, MARS Fc-WHEP immobilised, 20 nM NRP2 as analyte
[5] = molecular target: T2, NRP2-Fc (R&D Systems #2215-N2); assay: SPR (column: Binding to NRP2 observed by SPR)

B1: Recombinant Human VEGF-C Protein (R&D Systems cat 2179-VC-025/CF) (ligand, UniProt P49767 103-227, looked up)
chain: TEETIKFAAAHYNTEILKSIDNEWRKTQCMPREVCIDVGKEFGVATNTFFKPPCVSVYRCGGCCNSEGLQCMNTSTSYLSKTLFEITVPLSQGPKPVTISFANHTSCRCMSKLDVYRQVHSIIRR
notes: Reagent of the cell immunofluorescence assay; Its catalogue number differs from that of the SPR reagent
**Q.** Which “IC50 (read off the curve)” value [1] does the source give for B1 here?
**A.** ~2 nM

B2: WARS WHEP (other, UniProt P23381 8-64, looked up)
chain: SLLELFNSIATQGELVRSLKAGNASKDEIDSAVKMLVSLKMSYKAAAGEDYKADCPP
notes: domain: WHEP domain; also called WHEP domain of WARS with a V5/His tag; not shown: V5/His tag
**Q.** Does B2 bind [2]?
**A.** no binding (tested: 20 nM)

B3: GARS Fc-WHEP (Fc fusion, UniProt P41250 63-119, looked up)
chain: VLAPLRLAVRQQGDLVRKLKEDKAPQVDVDKAVAELKARKRVLEAKELALQPKDDIV
notes: domain: WHEP domain; also called Fc domain fused to the WHEP domain of GARS; not shown: Fc domain
**Q.** Does B3 bind [3]?
**A.** no binding (tested: 20 nM)

B4: MARS Fc-WHEP (Fc fusion, UniProt P56192 841-897, looked up)
chain: QIQALMDEVTKQGNIVRELKAQKADKNEVAAEVAKLLDLKKQLAVAEGKPPEAPKGK
notes: domain: WHEP domain; also called Fc domain fused to the WHEP domain of MARS; not shown: Fc domain
**Q.** Does B4 bind [4]?
**A.** no binding (tested: 20 nM)

B5: VEGF-A121 (Peprotech #100-20A) (ligand, human, UniProt P15692-9 27-147, looked up)
chain: APMAEGGGQNHHEVVKFMDVYQRSYCHPIETLVDIFQEYPDEIEYIFKPSCVPLMRCGGCCNDEGLECVPTEESNITMQIMRIKPHQGQHIGEMSFLQHNKCECRPKKDRARQEKCDKPRR
**Q.** Does B5 bind [5]?
**A.** no binding

B6: VEGF-A145 (R&D Systems #7626-VE-CF) (ligand, human, UniProt P15692-6 27-171, looked up)
chain: APMAEGGGQNHHEVVKFMDVYQRSYCHPIETLVDIFQEYPDEIEYIFKPSCVPLMRCGGCCNDEGLECVPTEESNITMQIMRIKPHQGQHIGEMSFLQHNKCECRPKKDRARQEKKSVRGKGKGQKRKRKKSRYKSWSVCDKPRR
**Q.** Does B6 bind [5]?
**A.** no binding
